Data set [1] concerns CC(C)[C@H](NCC1(O)OC[C@@H](O)[C@@H](O)[C@@H]1O)C(=O)N[C@@H](Cc1c[nH]cn1)C(=O)O. As to the kind of experiment: purified protein, by the assay type. The following applies: other: IE353, F-VH 0.18-1.75 mM, 37° C., MES pH 6.5, peroxidase-coupled, Lineweaver-Burk plot.
Substrate in data set [2]: CC(C)[C@H](NCC1(O)OC[C@@H](O)[C@@H](O)[C@@H]1O)C(=O)N[C@@H](Cc1c[nH]cn1)C(=O)O
Kind of data set: Km value to F-VH (Lineweaver-Burk plot). It is filed as biochemical, Coniochaeta sp. The settings on record: other: FPOX-CE, F-VH 0.18-1.75 mM, 37° C., MES pH 6.5, peroxidase-coupled. As to the method: (§1) The chemical compounds used in the present examples were purchased from NACALAI TESQUE, INC. unless otherwise particularly stated.
(§2) The following describes an activity measurement method of the following examples 1 through 3.
(§3) An enzyme activity to a substrate was measured by an increase in absorbance of a pigment as a result of peroxidase reaction involving hydrogen peroxide generated by enzyme reaction. First, 3 ml of activity measuring reagent was heated at 37° C. for 5 minutes, and then 0.1 ml of enzyme solution diluted in advance by an enzyme diluent (a 50 mM potassium phosphate buffer (pH 7.5)) was added to the activity measuring reagent, thereby starting the reaction.
(§4) The reaction was conducted at 37° C. for 5 minutes, and then a change in the absorbance at 500 nm (ΔODtest/min) was measured. Meanwhile, a blank test was conducted by adding, instead of the enzyme solution, 0.1 ml of enzyme diluent to the activity measuring reagent, and then measuring a change in the absorbance at 500 nm (ΔODblank/min) in the same way. […] In the above formula, • “3.1 (ml)” is the whole liquid quantity; • “13” is a millimolar absorbance index; • “1.0 (cm)” is an optical length of a cell; and • “0.1 (ml)” is the enzyme sample quantity.
(§5) The Km value to F-VH was worked out as follows. […] Subsequently, activities in the samples were measured by the above-described activity measurement method. […]

Substrate in data set [3]: CC(C)[C@H](NCC1(O)OC[C@@H](O)[C@@H](O)[C@@H]1O)C(=O)N[C@@H](Cc1c[nH]cn1)C(=O)O
As to the kind of experiment: Km value to F-VH (Lineweaver-Burk plot). In kind it is biochemical, E. terrenum. The settings on record: other: FPOX-EE, F-VH 0.18-1.75 mM, 37° C., MES pH 6.5, peroxidase-coupled. How it is done: as §1, §2, §3, §4, §5

In general, Km refers to the substrate concentration at which the rate is half of its maximum.

For the molecule “Phaeosphaeria nodorum fructosyl valyl histidine oxidase IE353, wild type, SEQ ID NO: 1 (Parastagonospora nodorum SN15)”, the Km in data set [1] was determined as 500 µM.

B1: FPOX-CE (Coniochaeta sp.), conventional enzyme manufactured by KIKKOMAM Corporation (Coniochaeta sp. NISL 9330) (protein)
chain: MTSNRADTRVIVVGGGGTIGSSTALHLVRSGYAPANITVLDTFEIPSAQSAGHDLNKIMGIRLRNKVDLQMSLEARQMWKEDELFQPFFHNTGRMDCEHTPEGIEDLKKQYQALHDAGAGLEKTHAWLDNEDEILSKMPLLQRDQIQGWKAIWSQDGGWLAAAKAINAIGQFLKERGVKFGFGGAGSFKQPLFDDEGTTCIGVETADGTKYYADKVVLAAGAWSPTLVDLEDQCCSKAWVYAHIQLTPEEAAEYKGVPVVYNGEFGFFFEPNEFGVIKVCDEFPGFSRFKEHQPYGAPSPKHISVPRSHAKHPTDTYPDASEVSIKKAIATFLPRFQDKELFNRALCWCTDTADAALLMCEHPKWKNFILATGDSGHSFKILPNVGKHVVELIEGRLPEEMAYQWRWRPGGDALKSRRAAPPKDLADMPGWKHDPKL
With B1, the Km in data set [2] is 1000 µM.

B2: FPOX-EE (E. terrenum), conventional enzyme manufactured by KIKKOMAM Corporation (Penicillium terrenum) (protein)
chain: MAHSRASTKVVVVGGGGTIGSSTALHLIRSGYTPSNITVLDVYKTPSLQSAGHDLNKIMGIRLRNGPDLQLSLESLDMWQNDELFKPFFHQVGMIDCSSSKEGIENLRRKYQTLLDAGIGLEKTNVWLESEDEILAKAPNFTREQVKGWKGLFCTDGGWLAAAKAINAIGIFLQDKGVKFGFGGAGTFQQPLFAADGKTCIGLETTDGTKYFADKVVLAAGAWSPTLVDLEDQCVSKAWVFAHIQLTPKEADAYKNVPVVYDGEYGFFFEPNEYGVIKVCDEFPGFSRFKLHQPYGAASPKMISVPRSHAKHPTDTYPDASEVTIRKAIARFLPEFKDKELFNRTMCWCTDTADANLLICEHPKWKNFILATGDSGHSFKLLPNIGKHVVELLEGSLSQEMAGAWRWRPGGDALRSRRGAPAKDLAEMPGWKHDAHL
Consider B2, for which the Km in data set [3] came to 1000 µM.

The values are drawn from US8993255B2, “Protein having fructosyl valyl histidine oxidase activity, modified protein, and use of the protein or the modified protein” (Toyo Boseki Kabushiki Kaisha, priority 2008, dated 2015).
